The target in assay [1] is T1, human thrombin receptor (PAR1) (human, UniProt P25116 42-425).
T1 sequence (looked up): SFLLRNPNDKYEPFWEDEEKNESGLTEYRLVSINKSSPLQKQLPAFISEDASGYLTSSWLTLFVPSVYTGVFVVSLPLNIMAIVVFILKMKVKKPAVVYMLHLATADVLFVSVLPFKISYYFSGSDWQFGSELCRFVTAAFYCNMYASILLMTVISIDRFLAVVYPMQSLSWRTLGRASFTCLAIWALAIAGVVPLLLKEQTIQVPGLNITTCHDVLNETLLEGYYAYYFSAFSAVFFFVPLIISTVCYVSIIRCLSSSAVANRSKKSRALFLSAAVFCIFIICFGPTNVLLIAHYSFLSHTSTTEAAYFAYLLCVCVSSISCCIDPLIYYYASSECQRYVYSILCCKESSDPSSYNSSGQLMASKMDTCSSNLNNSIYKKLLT
As to the kind of experiment: cell-based or functional assay.

Assay [2] has as its target T2, dark-adapted rhodopsin (bovine rod outer segment membranes) (bovine, UniProt P02699 1-348, retinylidene chromophore bound to Lys-296).
T2 construct: whole, on cells; also called dark-adapted bovine rhodopsin
The assay can be described thus: LacI display panning, dark-adapted ROS membranes.

Assay [3] addresses T3, light-activated rhodopsin (bovine rod outer segment membranes) (bovine, UniProt P02699 1-348, retinylidene chromophore bound to Lys-296).
T3 construct: whole, on cells; native receptor in membrane fragments immobilised on wells, not intact cells; also called metarhodopsin II; MII
The assay can be described thus: not detailed in the sentence.

The target in assay [4] is T3, light-activated rhodopsin (bovine rod …). As to the kind of experiment: LacI display panning, light-activated ROS membranes, peptide 8 added in rounds 3 and 4. The procedure:
The panning process is illustrated in FIG. 1. For screening of the library by “panning,” rhodopsin receptors prepared according to Example 5 were immobilized directly on Immulon 4 (Dynatech) microtiter wells (0.1-1 μg of protein per well) in cold 35 mM HEPES, pH 7.5, containing 0.1 mM EDTA, 50 mM KCl and 1 mM dithiothreitol (HEK/DTT). After shaking for one hour at 4° C., unbound membrane fragments were washed away with HEK/DTT. The wells were blocked with 100 μl 2% BSA in HEKL (35 mM HEPES; 0.1 mM EDTA; 50 mM KCl; 0.2 M α-lactose; pH 7.5, with 1 mM DTT). For rounds 1 and 2, BSA was used for blocking; in later rounds 1% nonfat dry milk was used. For the first round of panning, about 24 wells of a 96-well plate were used. In subsequent rounds, 8 wells with receptor and 8 wells without receptor were prepared.
To identify peptides having even higher affinity to light-activated rhodopsin than those identified by the panning procedure described in Example 7, a high affinity peptide was included in the library incubations in rounds three and four. […] Screening of the Gαt library was performed as in Example 7, except that 10 μL 100 μM ([…]) peptide 8 was included in the wells in rounds three and four. […] Residues L344, C347 and G348 remained stable whether peptide 8 was included in the screen or not.

Results on 14 molecules are retold here after patent US20040018558A1 (published 2004).

Where no end group is shown, it is not given here.

T2 sequence (P02699 whole entry): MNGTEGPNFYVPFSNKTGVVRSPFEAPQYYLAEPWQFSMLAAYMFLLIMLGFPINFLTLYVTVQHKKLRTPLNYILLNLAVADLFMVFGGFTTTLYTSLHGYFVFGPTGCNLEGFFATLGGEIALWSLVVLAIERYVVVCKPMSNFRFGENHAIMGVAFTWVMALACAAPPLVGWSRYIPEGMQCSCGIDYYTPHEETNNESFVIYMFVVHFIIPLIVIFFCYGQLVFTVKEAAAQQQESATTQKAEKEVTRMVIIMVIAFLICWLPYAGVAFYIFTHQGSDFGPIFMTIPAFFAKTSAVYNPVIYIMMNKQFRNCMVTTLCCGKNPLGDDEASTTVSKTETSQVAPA
T3 sequence (P02699 whole entry, the tested form may be a part): as the sequence (P02699 whole entry) above

B1: Gαq C-terminal minigene peptide (pcDNA-Gαq) (peptide)
peptide: MGLQLNLKEYNAV
With B1, the “decrease in thrombin-mediated HA-MAPK activity against pcDNA” value (from here on “decrease”) in assay [1] came out at 57%.

B2: Clone No. 21 (Table X) IRENLKDLGLV (peptide, not shown: small tags and cut ends)
chain: IRENLKDLGLV
modifications: also: fused to LacI carrier via linker, letters not given here
B2: the binding result in assay [2] is “binds”.

B3: Clone No. 26 (Table X) IRENFKYLGLW (peptide, not shown: small tags and cut ends)
chain: IRENFKYLGLW
modifications: also: fused to LacI carrier via linker, letters not given here
Consider B3, for which the binding result in assay [2] is “binds”.

B4: Gα12 C-terminal minigene peptide (pcDNA-Gα12) (peptide)
peptide: MGLQENLKDIMLQ
As for B4, the “decrease” value in assay [1] was found to be 50%.

B5: Peptide 8 (LLENLRDCGMF) (peptide)
peptide: LLENLRDCGMF
notes: also called HAP
For B5, the “fold binding against the native sequence” value in assay [3] was 1000 fold.

B6: Clone No. 17 (Table X) IRNNLKRYGMF (peptide, not shown: small tags and cut ends)
chain: IRNNLKRYGMF
modifications: also: fused to LacI carrier via linker, letters not given here
As for B6, the binding result in assay [2] is reported as “binds”.

B7: Clone No. 41 (Table X) IRGTLKGWGLF (peptide, not shown: small tags and cut ends)
chain: IRGTLKGWGLF
modifications: also: fused to LacI carrier via linker, letters not given here
On to B7, for which, in assay [2], the binding result is listed as “binds”.

B8: Clone No. 3 (Table XVIII) ILENLKDCGLL (peptide, not shown: small tags and cut ends)
chain: ILENLKDCGLL
modifications: also: fused to LacI carrier via linker, letters not given here
Turning to B8, the binding result in assay [4] is “binds”.

B9: Gαi C-terminal minigene peptide (pcDNA-Gαi) (peptide)
peptide: MGIKNNLKDCGLF
For B9, in assay [1], the “decrease” value amounted to 59%.

B10: GαiR control minigene peptide (Gαi1/2 carboxyl terminus in random order) (peptide)
peptide: MGNGIKCLFNDKL
For B10, the “thrombin mediated increase of HA-MAPK activity” value in assay [1] was found to be 4.46 fold.

B11: Gα13 C-terminal minigene peptide (pcDNA-Gα13) (peptide)
peptide: MGLHDNLKQLMLQ
Consider B11, for which the “decrease” value in assay [1] was 77%.

B12: Clone No. 3 (Table X) VRDNLKNCFLF (peptide, not shown: small tags and cut ends)
chain: VRDNLKNCFLF
modifications: also: fused to LacI carrier via linker, letters not given here
Turning to B12, the binding result in assay [2] was “binds”.

B13: Clone No. 7 (Table X) IGEQIEDCGPF (peptide, not shown: small tags and cut ends)
chain: IGEQIEDCGPF
modifications: also: fused to LacI carrier via linker, letters not given here
For B13, the binding result in assay [2] is “binds”.

B14: Clone No. 33/37 (Table X) SLEILKDWGLF (peptide, not shown: small tags and cut ends)
chain: SLEILKDWGLF
modifications: also: fused to LacI carrier via linker, letters not given here
Turning to B14, the binding result in assay [2] is recorded as “binds”.
